According to US20060171941A1:

How the values were obtained:
[1] = molecular target: bovine submaxillary mucin (TAG-72 positive) (bovine); experiment: competition RIA against 125I-mCC49 on BSM; relative affinity constant, modified Scatchard
[2] = molecular target: anti-V region antibodies to CC49 in the serum of patient two; experiment: SPR competition, soluble competitor Ab against immobilized HuCC49 for patient two serum anti-V region Abs
[3] = molecular target: tumor-associated glycoprotein-72 on the cell surface of Jurkat cells; experiment: flow cytometry, 0.5 ug Ab on Jurkat cells expressing TAG-72
[4] = molecular target: anti-V region antibodies to CC49 in the serum of patient one; experiment: SPR competition for patient one serum anti-V region Abs
[5] = molecular target: anti-V region antibodies to CC49 in the serum of patient one; experiment: SPR competition, soluble competitor Ab against immobilized HuCC49 for patient one serum anti-V region Abs

| Binder | Ka [1] [M⁻¹] | IC50 [2] [nM] | % of gated cells [3] [%] | mean fluorescence intensity [3] | concentration required for 20% inhibition [4] [nM] | percent inhibition at 1000 nM [4] [%] | IC50 [5] [nM] |
| --- | --- | --- | --- | --- | --- | --- | --- |
| HuCC49V10 (antibody, V domains shown) VH: QVQLVQSGAEVVKPGASVKISCKASGYTFTDHAIHWVKQNPGQRLEWIGYFSPGNDDFKYSQKFQGKATLTADTSASTAYVELSSLRSEDTAVYFCTRSLNMAYWGQGTLVTVSS VL: DIVMSQSPDSLAVSLGERVTLNCKSSQSVLYSSNSKNYLAWYQQKPGQSPKLLIYWASTRESGVPDRFSGSGSGTDFTLTISSVQAEDVAVYYCQQYYSYPLSFGAGTKLELK | 5.9e+07 | 7.7 | 25.8 | 62.9 | 80 | < 30 | > 1000 |
| humanized CC49 (CDR-grafted) (antibody, V domains shown) VH: QVQLVQSGAEVVKPGASVKISCKASGYTFTDHAIHWVKQNPGQRLEWIGYFSPGNDDFKYNERFKGKATLTADTSASTAYVELSSLRSEDTAVYFCTRSLNMAYWGQGTLVTVSS VL: DIVMSQSPDSLAVSLGERVTLNCKSSQSLLYSGNQKNYLAWYQQKPGQSPKLLIYWASARESGVPDRFSGSGSGTDFTLTISSVQAEDVAVYYCQQYYSYPLTFGAGTKLELK | 1.16e+08 | 2.2 |  |  | 2 |  | 6 |
